{"source": "paper PMC4118443", "about": "(2014)", "biological_target": "T1, NS5A 347-361 (Hepatitis C virus, UniProt P26664)", "T1 chain": "PKSPPVPPPRKKRTV", "assay": "fluorescence titration"}
{"binder": "Bin1 SH3 (protein) LPPGFMFKVQAQHDYTATDTDELQLKAGDVVLVIPFQNPEEQDEGWLMGVKESDWNQHKELEKCRGVFPENFTERVP", "values": [{"measurement": "Kd", "result": 200, "unit": "nM"}]}
